The results in this text go back to paper PMC9242541, “Importance of Rare DPYD Genetic Polymorphisms for 5-Fluorouracil Therapy in the Japanese Population” (Frontiers in Pharmacology, 2022).

The series concerns the molecule itself. Nature of the series: native gel or EMSA; blue native PAGE (Tris-glycine buffer, 5%-20% polyacrylamide gels), 9 μg of the soluble fraction of transfected 293FT cells per lane, immunoblot with polyclonal anti-human DPD antibody; monomer to dimer. In general terms: Mobility shift assays separate free from complexed probe on a gel.

B1: DPD variant I528V (enzyme, human, UniProt Q12882 4-1025, looked up)
chain: VLSKDSADIESILALNPRTQTHATLCSTSAKKLDKKHWKRNPDKNCFNCEKLENNFDDIKHTTLGERGALREAMRCLKCADAPCQKSCPTNLDIKSFITSIANKNYYGAAKMIFSDNPLGLTCGMVCPTSDLCVGGCNLYATEEGPINIGGLQQFATEVFKAMSIPQIRNPSLPPPEKMSEAYSAKIALFGAGPASISCASFLARLGYSDITIFEKQEYVGGLSTSEIPQFRLPYDVVNFEIELMKDLGVKIICGKSLSVNEMTLSTLKEKGYKAAFIGIGLPEPNKDAIFQGLTQDQGFYTSKDFLPLVAKGSKAGMCACHSPLPSIRGVVIVLGAGDTAFDCATSALRCGARRVFIVFRKGFVNIRAVPEEMELAKEEKCEFLPFLSPRKVIVKGGRIVAMQFVRTEQDETGKWNEDEDQMVHLKADVVISAFGSVLSDPKVKEALSPIKFNRWGLPEVDPETMQTSEAWVFAGGDVVGLANTTVESVNDGKQASWYIHKYVQSQYGASVSAKPELPLFYTPVDLVDISVEMAGLKFINPFGLASATPATSTSMIRRAFEAGWGFALTKTFSLDKDIVTNVSPRIIRGTTSGPMYGPGQSSFLNIELISEKTAAYWCQSVTELKADFPDNIVIASIMCSYNKNDWTELAKKSEDSGADALELNLSCPHGMGERGMGLACGQDPELVRNICRWVRQAVQIPFFAKLTPNVTDIVSIARAAKEGGANGVTATNTVSGLMGLKSDGTPWPAVGIAKRTTYGGVSGTAIRPIALRAVTSIARALPGFPILATGGIDSAESGLQFLHSGASVLQVCSAIQNQDFTVIEDYCTGLKALLYLKSIEELQDWDGQSPATVSHQKGKPVPRIAELMDKKLPSFGPYLEQRKKIIAENKIRLKEQNVAFSPLKRNCFIPKRPIPTIKDVIGKALQYLGTFGELSNVEQVVAMIDEEMCINCGKCYMTCNDSGYQAIQFDPETHLPTITDTCTGCTLCLSVCPIVDCIKMVSRTTPYEPKRGVPLSVNPVC
notes: dihydropyrimidine dehydrogenase (DPD), human, DPYD cDNA with a variant found in Japanese individuals; made by site-directed mutagenesis of the wild-type construct; also called 1582A > G; source: 293FT cells, transfected (pcDNA3.4), soluble fraction
As usually defined, the stoichiometry N is a count of units in the complex or per binding partner. For B1, the “stoichiometry N” value was found to be 2.

B2: DPD variant C29R (enzyme, human, UniProt Q12882 4-1025, looked up)
chain: VLSKDSADIESILALNPRTQTHATLRSTSAKKLDKKHWKRNPDKNCFNCEKLENNFDDIKHTTLGERGALREAMRCLKCADAPCQKSCPTNLDIKSFITSIANKNYYGAAKMIFSDNPLGLTCGMVCPTSDLCVGGCNLYATEEGPINIGGLQQFATEVFKAMSIPQIRNPSLPPPEKMSEAYSAKIALFGAGPASISCASFLARLGYSDITIFEKQEYVGGLSTSEIPQFRLPYDVVNFEIELMKDLGVKIICGKSLSVNEMTLSTLKEKGYKAAFIGIGLPEPNKDAIFQGLTQDQGFYTSKDFLPLVAKGSKAGMCACHSPLPSIRGVVIVLGAGDTAFDCATSALRCGARRVFIVFRKGFVNIRAVPEEMELAKEEKCEFLPFLSPRKVIVKGGRIVAMQFVRTEQDETGKWNEDEDQMVHLKADVVISAFGSVLSDPKVKEALSPIKFNRWGLPEVDPETMQTSEAWVFAGGDVVGLANTTVESVNDGKQASWYIHKYVQSQYGASVSAKPELPLFYTPIDLVDISVEMAGLKFINPFGLASATPATSTSMIRRAFEAGWGFALTKTFSLDKDIVTNVSPRIIRGTTSGPMYGPGQSSFLNIELISEKTAAYWCQSVTELKADFPDNIVIASIMCSYNKNDWTELAKKSEDSGADALELNLSCPHGMGERGMGLACGQDPELVRNICRWVRQAVQIPFFAKLTPNVTDIVSIARAAKEGGANGVTATNTVSGLMGLKSDGTPWPAVGIAKRTTYGGVSGTAIRPIALRAVTSIARALPGFPILATGGIDSAESGLQFLHSGASVLQVCSAIQNQDFTVIEDYCTGLKALLYLKSIEELQDWDGQSPATVSHQKGKPVPRIAELMDKKLPSFGPYLEQRKKIIAENKIRLKEQNVAFSPLKRNCFIPKRPIPTIKDVIGKALQYLGTFGELSNVEQVVAMIDEEMCINCGKCYMTCNDSGYQAIQFDPETHLPTITDTCTGCTLCLSVCPIVDCIKMVSRTTPYEPKRGVPLSVNPVC
notes: dihydropyrimidine dehydrogenase (DPD), human, DPYD cDNA with a variant found in Japanese individuals; made by site-directed mutagenesis of the wild-type construct; also called 85T > C (*9A, *9B); source: 293FT cells, transfected (pcDNA3.4), soluble fraction
B2: the “stoichiometry N” value stood at 2.

B3: DPD variant I560V (enzyme, human, UniProt Q12882 4-1025, looked up)
chain: VLSKDSADIESILALNPRTQTHATLCSTSAKKLDKKHWKRNPDKNCFNCEKLENNFDDIKHTTLGERGALREAMRCLKCADAPCQKSCPTNLDIKSFITSIANKNYYGAAKMIFSDNPLGLTCGMVCPTSDLCVGGCNLYATEEGPINIGGLQQFATEVFKAMSIPQIRNPSLPPPEKMSEAYSAKIALFGAGPASISCASFLARLGYSDITIFEKQEYVGGLSTSEIPQFRLPYDVVNFEIELMKDLGVKIICGKSLSVNEMTLSTLKEKGYKAAFIGIGLPEPNKDAIFQGLTQDQGFYTSKDFLPLVAKGSKAGMCACHSPLPSIRGVVIVLGAGDTAFDCATSALRCGARRVFIVFRKGFVNIRAVPEEMELAKEEKCEFLPFLSPRKVIVKGGRIVAMQFVRTEQDETGKWNEDEDQMVHLKADVVISAFGSVLSDPKVKEALSPIKFNRWGLPEVDPETMQTSEAWVFAGGDVVGLANTTVESVNDGKQASWYIHKYVQSQYGASVSAKPELPLFYTPIDLVDISVEMAGLKFINPFGLASATPATSTSMVRRAFEAGWGFALTKTFSLDKDIVTNVSPRIIRGTTSGPMYGPGQSSFLNIELISEKTAAYWCQSVTELKADFPDNIVIASIMCSYNKNDWTELAKKSEDSGADALELNLSCPHGMGERGMGLACGQDPELVRNICRWVRQAVQIPFFAKLTPNVTDIVSIARAAKEGGANGVTATNTVSGLMGLKSDGTPWPAVGIAKRTTYGGVSGTAIRPIALRAVTSIARALPGFPILATGGIDSAESGLQFLHSGASVLQVCSAIQNQDFTVIEDYCTGLKALLYLKSIEELQDWDGQSPATVSHQKGKPVPRIAELMDKKLPSFGPYLEQRKKIIAENKIRLKEQNVAFSPLKRNCFIPKRPIPTIKDVIGKALQYLGTFGELSNVEQVVAMIDEEMCINCGKCYMTCNDSGYQAIQFDPETHLPTITDTCTGCTLCLSVCPIVDCIKMVSRTTPYEPKRGVPLSVNPVC
notes: dihydropyrimidine dehydrogenase (DPD), human, DPYD cDNA with a variant found in Japanese individuals; made by site-directed mutagenesis of the wild-type construct; also called 1678A > G; source: 293FT cells, transfected (pcDNA3.4), soluble fraction
For the protein B3, the “stoichiometry N” value is 2.

B4: DPD risk variant I560S (DPYD*13) (enzyme, human, UniProt Q12882 4-1025, looked up)
chain: VLSKDSADIESILALNPRTQTHATLCSTSAKKLDKKHWKRNPDKNCFNCEKLENNFDDIKHTTLGERGALREAMRCLKCADAPCQKSCPTNLDIKSFITSIANKNYYGAAKMIFSDNPLGLTCGMVCPTSDLCVGGCNLYATEEGPINIGGLQQFATEVFKAMSIPQIRNPSLPPPEKMSEAYSAKIALFGAGPASISCASFLARLGYSDITIFEKQEYVGGLSTSEIPQFRLPYDVVNFEIELMKDLGVKIICGKSLSVNEMTLSTLKEKGYKAAFIGIGLPEPNKDAIFQGLTQDQGFYTSKDFLPLVAKGSKAGMCACHSPLPSIRGVVIVLGAGDTAFDCATSALRCGARRVFIVFRKGFVNIRAVPEEMELAKEEKCEFLPFLSPRKVIVKGGRIVAMQFVRTEQDETGKWNEDEDQMVHLKADVVISAFGSVLSDPKVKEALSPIKFNRWGLPEVDPETMQTSEAWVFAGGDVVGLANTTVESVNDGKQASWYIHKYVQSQYGASVSAKPELPLFYTPIDLVDISVEMAGLKFINPFGLASATPATSTSMSRRAFEAGWGFALTKTFSLDKDIVTNVSPRIIRGTTSGPMYGPGQSSFLNIELISEKTAAYWCQSVTELKADFPDNIVIASIMCSYNKNDWTELAKKSEDSGADALELNLSCPHGMGERGMGLACGQDPELVRNICRWVRQAVQIPFFAKLTPNVTDIVSIARAAKEGGANGVTATNTVSGLMGLKSDGTPWPAVGIAKRTTYGGVSGTAIRPIALRAVTSIARALPGFPILATGGIDSAESGLQFLHSGASVLQVCSAIQNQDFTVIEDYCTGLKALLYLKSIEELQDWDGQSPATVSHQKGKPVPRIAELMDKKLPSFGPYLEQRKKIIAENKIRLKEQNVAFSPLKRNCFIPKRPIPTIKDVIGKALQYLGTFGELSNVEQVVAMIDEEMCINCGKCYMTCNDSGYQAIQFDPETHLPTITDTCTGCTLCLSVCPIVDCIKMVSRTTPYEPKRGVPLSVNPVC
notes: dihydropyrimidine dehydrogenase (DPD), human, DPYD cDNA with a risk variant reported in Caucasians; made by site-directed mutagenesis of the wild-type construct; also called c.1679T>G; 1679T > G (*13); source: 293FT cells, transfected (pcDNA3.4), soluble fraction
Regarding B4, the “stoichiometry N” value came out at 2.

B5: DPD variant I543V (enzyme, human, UniProt Q12882 4-1025, looked up)
chain: VLSKDSADIESILALNPRTQTHATLCSTSAKKLDKKHWKRNPDKNCFNCEKLENNFDDIKHTTLGERGALREAMRCLKCADAPCQKSCPTNLDIKSFITSIANKNYYGAAKMIFSDNPLGLTCGMVCPTSDLCVGGCNLYATEEGPINIGGLQQFATEVFKAMSIPQIRNPSLPPPEKMSEAYSAKIALFGAGPASISCASFLARLGYSDITIFEKQEYVGGLSTSEIPQFRLPYDVVNFEIELMKDLGVKIICGKSLSVNEMTLSTLKEKGYKAAFIGIGLPEPNKDAIFQGLTQDQGFYTSKDFLPLVAKGSKAGMCACHSPLPSIRGVVIVLGAGDTAFDCATSALRCGARRVFIVFRKGFVNIRAVPEEMELAKEEKCEFLPFLSPRKVIVKGGRIVAMQFVRTEQDETGKWNEDEDQMVHLKADVVISAFGSVLSDPKVKEALSPIKFNRWGLPEVDPETMQTSEAWVFAGGDVVGLANTTVESVNDGKQASWYIHKYVQSQYGASVSAKPELPLFYTPIDLVDISVEMAGLKFVNPFGLASATPATSTSMIRRAFEAGWGFALTKTFSLDKDIVTNVSPRIIRGTTSGPMYGPGQSSFLNIELISEKTAAYWCQSVTELKADFPDNIVIASIMCSYNKNDWTELAKKSEDSGADALELNLSCPHGMGERGMGLACGQDPELVRNICRWVRQAVQIPFFAKLTPNVTDIVSIARAAKEGGANGVTATNTVSGLMGLKSDGTPWPAVGIAKRTTYGGVSGTAIRPIALRAVTSIARALPGFPILATGGIDSAESGLQFLHSGASVLQVCSAIQNQDFTVIEDYCTGLKALLYLKSIEELQDWDGQSPATVSHQKGKPVPRIAELMDKKLPSFGPYLEQRKKIIAENKIRLKEQNVAFSPLKRNCFIPKRPIPTIKDVIGKALQYLGTFGELSNVEQVVAMIDEEMCINCGKCYMTCNDSGYQAIQFDPETHLPTITDTCTGCTLCLSVCPIVDCIKMVSRTTPYEPKRGVPLSVNPVC
notes: dihydropyrimidine dehydrogenase (DPD), human, DPYD cDNA with a variant found in Japanese individuals; made by site-directed mutagenesis of the wild-type construct; also called 1627A > G (*5); source: 293FT cells, transfected (pcDNA3.4), soluble fraction
For B5, the “stoichiometry N” value came to 2.

B6: DPD variant R592W (enzyme, human, UniProt Q12882 4-1025, looked up)
chain: VLSKDSADIESILALNPRTQTHATLCSTSAKKLDKKHWKRNPDKNCFNCEKLENNFDDIKHTTLGERGALREAMRCLKCADAPCQKSCPTNLDIKSFITSIANKNYYGAAKMIFSDNPLGLTCGMVCPTSDLCVGGCNLYATEEGPINIGGLQQFATEVFKAMSIPQIRNPSLPPPEKMSEAYSAKIALFGAGPASISCASFLARLGYSDITIFEKQEYVGGLSTSEIPQFRLPYDVVNFEIELMKDLGVKIICGKSLSVNEMTLSTLKEKGYKAAFIGIGLPEPNKDAIFQGLTQDQGFYTSKDFLPLVAKGSKAGMCACHSPLPSIRGVVIVLGAGDTAFDCATSALRCGARRVFIVFRKGFVNIRAVPEEMELAKEEKCEFLPFLSPRKVIVKGGRIVAMQFVRTEQDETGKWNEDEDQMVHLKADVVISAFGSVLSDPKVKEALSPIKFNRWGLPEVDPETMQTSEAWVFAGGDVVGLANTTVESVNDGKQASWYIHKYVQSQYGASVSAKPELPLFYTPIDLVDISVEMAGLKFINPFGLASATPATSTSMIRRAFEAGWGFALTKTFSLDKDIVTNVSPRIIWGTTSGPMYGPGQSSFLNIELISEKTAAYWCQSVTELKADFPDNIVIASIMCSYNKNDWTELAKKSEDSGADALELNLSCPHGMGERGMGLACGQDPELVRNICRWVRQAVQIPFFAKLTPNVTDIVSIARAAKEGGANGVTATNTVSGLMGLKSDGTPWPAVGIAKRTTYGGVSGTAIRPIALRAVTSIARALPGFPILATGGIDSAESGLQFLHSGASVLQVCSAIQNQDFTVIEDYCTGLKALLYLKSIEELQDWDGQSPATVSHQKGKPVPRIAELMDKKLPSFGPYLEQRKKIIAENKIRLKEQNVAFSPLKRNCFIPKRPIPTIKDVIGKALQYLGTFGELSNVEQVVAMIDEEMCINCGKCYMTCNDSGYQAIQFDPETHLPTITDTCTGCTLCLSVCPIVDCIKMVSRTTPYEPKRGVPLSVNPVC
notes: dihydropyrimidine dehydrogenase (DPD), human, DPYD cDNA with a variant found in Japanese individuals; made by site-directed mutagenesis of the wild-type construct; also called 1774C > T; source: 293FT cells, transfected (pcDNA3.4), soluble fraction
For B6, the “stoichiometry N” value came out at 2.
